Several values for one entry are separate records, joined by “and”; a condition that tells them apart may be missing. Equal entries are not always repeated. Where two headings read alike, the source gives them in different places.
Legend:
[1] = target: truncated Tissue Factor tTF219 (extracellular domain of the mature Tissue Factor protein, amino acids 1-219) (human)
[2] = target: IgG-H6-N'-cys-tTF219 (human)
[3] = target: H6-N'-cys-tTF219 dimer (human)
[4] = target: truncated Tissue Factor tTF219 (extracellular domain of the mature Tissue Factor protein, amino acids 1-219) (human); remark: listed apart in the source
H6-tTF221-cys-C' (human) [5] = target: H6-tTF221-cys-C' (human)
[6] = target: truncated Tissue Factor tTF219 (extracellular domain of the mature Tissue Factor protein, amino acids 1-219) (human); remark: listed apart in the source
[7] = target: I-A^d (MHC Class II antigen) on A20 mouse B-lymphoma cells (mouse) (UniProt P04228)
[8] = target: truncated Tissue Factor tTF219 (extracellular domain of the mature Tissue Factor protein, amino acids 1-219) (human); remark: listed apart in the source
[9] = target: truncated Tissue Factor tTF219 (extracellular domain of the mature Tissue Factor protein, amino acids 1-219) (human); remark: listed apart in the source
H6-tTF221-cys-C' (human) [10] = target: H6-tTF221-cys-C' (human); remark: listed apart in the source

tTF concentration at which plasma coagulated in 50 seconds (A20 cells coated with B21-2/10H10) [1]: 1 nM
tTF concentration at which plasma coagulated in 50 seconds (A20 cells coated with B21-2/10H10) [2]: 5 nM
tTF concentration at which plasma coagulated in 50 seconds (A20 cells coated with B21-2/10H10) [3]: 100 pM and 200 pM
tTF concentration at which plasma coagulated in 50 seconds (A20 cells coated with B21-2/10H10) [4]: 100 pM
tTF concentration at which plasma coagulated in 50 seconds (A20 cells coated with B21-2/10H10) (H6-tTF221-cys-C' (human) [5]): 1 nM
clotting time of citrated mouse plasma on A20 cells [6]: 36 s
clotting time of citrated mouse plasma on A20 cells [7]: 36 s
tTF concentration at which plasma coagulated in 50 seconds (A20 cells coated with B21-2/10H10) (H6-N'-cys-tTF219 (human)): 3 nM
tTF concentration at which plasma coagulated in 50 seconds (A20 cells coated with B21-2/10H10) (H6-tTF219-cys-C' (human)): 3 nM
tTF concentration at which plasma coagulated in 50 seconds (A20 cells coated with B21-2/10H10) [8]: 3 nM
tTF concentration at which plasma coagulated in 50 seconds (A20 cells coated with B21-2/10H10) (tTF220-cys-C' (human)): 500 pM
tTF concentration at which plasma coagulated in 50 seconds (A20 cells coated with B21-2/10H10) (tTF221-cys-C' (human)): 500 pM
tTF concentration at which plasma coagulated in 50 seconds (A20 cells coated with B21-2/10H10) [9]: 500 pM
tTF concentration at which plasma coagulated in 50 seconds (A20 cells coated with B21-2/10H10) (H6-tTF220-cys-C' (human)): 500 pM
tTF concentration at which plasma coagulated in 50 seconds (A20 cells coated with B21-2/10H10) (H6-tTF221-cys-C' (human) [10]): 500 pM
Substance: B21-2/10H10 bispecific antibody (Fab' arm of B21-2 linked to Fab' arm of 10H10)

From patent US6132730
